According to patent US20250360126:

Test system: T1, NPM2 (embryonic NPM1 paralog)
T1 sequence (Q86SE8 1-214, species assumed, looked up): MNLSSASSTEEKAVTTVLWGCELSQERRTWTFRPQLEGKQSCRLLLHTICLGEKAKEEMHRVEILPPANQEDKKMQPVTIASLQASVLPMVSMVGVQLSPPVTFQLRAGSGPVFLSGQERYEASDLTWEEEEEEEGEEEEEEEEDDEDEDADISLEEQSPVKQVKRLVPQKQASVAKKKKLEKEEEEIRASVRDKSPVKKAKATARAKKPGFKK

B1: CCP5 (cytosolic carboxypeptidase-like 5) (enzyme, UniProt Q8NDL9 1-886, looked up, species assumed)
Cytosolic carboxypeptidase-like protein 5: MELRCGGLLFSSRFDSGNLAHVEKVESLSSDGEGVGGGASALTSGIASSPDYEFNVWTRPDCAETEFENGNRSWFYFSVRGGMPGKLIKINIMNMNKQSKLYSQGMAPFVRTLPTRPRWERIRDRPTFEMTETQFVLSFVHRFVEGRGATTFFAFCYPFSYSDCQELLNQLDQRFPENHPTHSSPLDTIYYHRELLCYSLDGLRVDLLTITSCHGLREDREPRLEQLFPDTSTPRPFRFAGKRIFFLSSRVHPGETPSSFVFNGFLDFILRPDDPRAQTLRRLFVFKLIPMLNPDGVVRGHYRTDSRGVNLNRQYLKPDAVLHPAIYGAKAVLLYHHVHSRLNSQSSSEHQPSSCLPPDAPVSDLEKANNLQNEAQCGHSADRHNAEAWKQTEPAEQKLNSVWIMPQQSAGLEESAPDTIPPKESGVAYYVDLHGHASKRGCFMYGNSFSDESTQVENMLYPKLISLNSAHFDFQGCNFSEKNMYARDRRDGQSKEGSGRVAIYKASGIIHSYTLECNYNTGRSVNSIPAACHDNGRASPPPPPAFPSRYTVELFEQVGRAMAIAALDMAECNPWPRIVLSEHSSLTNLRAWMLKHVRNSRGLSSTLNVGVNKKRGLRTPPKSHNGLPVSCSENTLSRARSFSTGTSAGGSSSSQQNSPQMKNSPSFPFHGSRPAGLPGLGSSTQKVTHRVLGPVREPRSQDRRRQQQPLNHRPAGSLAPSPAPTSSGPASSHKLGSCLLPDSFNIPGSSCSLLSSGDKPEAVMVIGKGLLGTGARMPCIKTRLQARPRLGRGSPPTRRGMKGSSGPTSPTPRTRESSELELGSCSATPGLPQARPPRPRSAPAFSPISCSLSDSPSWNCYSRGPLGQPEVCFVPKSPPLTVSPRV
deglutamylation of substrate, blot (FIG. 2C): the CCP5 enzyme deglutamylates NPM2
